Results from patent publication US20210130436A1 (published 2021).
Residue numbers refer to the chain shown, from its start. Names and notes keep the numbering of the source. Each block holds one binder with its values, some of them ahead of it.

Key:
human PD-L1 [1] = target: T1, human PD-L1 (human, UniProt Q9NZQ7 19-290); assay: flow cytometry MFI relative to WT CD80 IgV-Fc, CHO/huPD-L1 cells, 33.3 nM
T1 construct: whole, on cells; CHO cells stably expressing huPD-L1; also called huPD-L1

human CTLA-4 [2] = target: T2, human CTLA-4 (human, UniProt P16410 36-223); assay: flow cytometry MFI relative to WT CD80 IgV-Fc, CHO/huCTLA-4 cells, 33.3 nM
T2 construct: whole, on cells; CHO cells stably expressing huCTLA4; also called huCTLA4
T2 sequence (P16410 36-223): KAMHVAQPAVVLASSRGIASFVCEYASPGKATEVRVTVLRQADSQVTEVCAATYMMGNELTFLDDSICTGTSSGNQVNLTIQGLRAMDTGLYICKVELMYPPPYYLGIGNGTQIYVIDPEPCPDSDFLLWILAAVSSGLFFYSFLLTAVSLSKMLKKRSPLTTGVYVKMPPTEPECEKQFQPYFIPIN

human CD28 [3] = target: T3, human CD28 (human, UniProt P10747 19-220); assay: flow cytometry MFI relative to WT CD80 IgV-Fc, Jurkat cells (CD28), 33.3 nM
T3 construct: whole, on cells; Jurkat/IL2 reporter cells, which endogenously express CD28

human PD-L1 [4] = target: T1, human PD-L1; assay: flow cytometry, MFI on CHO/huPD-L1 cells divided by MFI on Jurkat cells (CD28), 33.3 nM
human PD-L1 [5] = target: T1, human PD-L1; assay: flow cytometry, CHO cells stably expressing huPD-L1, 33.3 nM Fc fusion, PE anti-human Fc
human CTLA-4 [6] = target: T2, human CTLA-4; assay: flow cytometry, CHO cells stably expressing huCTLA-4, 33.3 nM Fc fusion, PE anti-human Fc
human CD28 [7] = target: T3, human CD28; assay: flow cytometry, Jurkat/IL2 reporter cells (endogenous CD28), 33.3 nM Fc fusion, PE anti-human Fc
[8] = target: T4, CD28 endogenously expressed on Jurkat/IL2 reporter cells (human, UniProt P10747 19-220); assay: flow cytometry, Jurkat cells (CD28), Fc fusion at 33.3 nM
T4 construct: whole, on cells; Target on Jurkat cells; also called Jurkats (CD28)

[9] = target: T5, human CTLA4 expressed on CHO cells (human, UniProt P16410 36-223); assay: flow cytometry, CHO cells stably expressing CTLA4, Fc fusion at 33.3 nM
T5 construct: whole, on cells; Target on CHO cells stably expressing CTLA4; also called huCTLA4
T5 sequence (P16410 36-223): as above

[10] = target: T6, human PD-L1 expressed on CHO cells (human, UniProt Q9NZQ7 19-290); assay: flow cytometry, CHO cells stably expressing PD-L1, Fc fusion at 33.3 nM
T6 construct: whole, on cells; Target on CHO cells stably expressing PD-L1; also called huPD-L1
T6 sequence (Q9NZQ7 19-290): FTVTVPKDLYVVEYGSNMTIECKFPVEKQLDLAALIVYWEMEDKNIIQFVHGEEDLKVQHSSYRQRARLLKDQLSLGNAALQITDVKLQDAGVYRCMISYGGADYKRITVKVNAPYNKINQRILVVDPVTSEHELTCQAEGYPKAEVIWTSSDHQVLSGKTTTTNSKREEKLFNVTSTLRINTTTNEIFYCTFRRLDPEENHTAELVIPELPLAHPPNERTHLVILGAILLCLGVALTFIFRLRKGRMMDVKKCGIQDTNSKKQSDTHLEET

T1 sequence (Q9NZQ7 19-290): as above

B2: CD80 E35D/N48K/V68M IgV-Fc (Fc fusion, not shown: small tags and cut ends; a dimerising Fc or GST)
chain: VIHVTKEVKEVATLSCGHNVSVEELAQTRIYWQKDKKMVLTMMSGDMKIWPEYKNRTIFDITNNLSIMILALRPSDEGTYECVVLKYEKDAFKREHLAEVTLSVKAD
- MFI at 33.3 nM [8]: 642 MFI
- MFI at 33.3 nM [9]: 33600 MFI

B5: variant CD80 IgV-Fc (inert) H18Y/A26P/E35D/M47I/V68M/A71G (Fc fusion)
chain: B2 chain with H18Y, A26P, M47I, K48N, A71G
notes: not shown: inert human IgG1 Fc
- Fold change to WT CD80 (human PD-L1 [1]): 330 fold
- Fold change to WT CD80 (human CTLA-4 [2]): 8.8 fold
- Fold change to WT CD80 (human CD28 [3]): 50.2 fold
- Ratio of PDL1:CD28 (human PD-L1 [4]): 10.6 ratio
- MFI at 33.3 nM (human PD-L1 [5]): 54500 MFI
- MFI at 33.3 nM (human CTLA-4 [6]): 12200 MFI
- MFI at 33.3 nM (human CD28 [7]): 5120 MFI

B7: variant CD80 IgV-Fc (inert) H18Y/A26P/E35D/M47Y/V68I/A71G/D90G (Fc fusion)
chain: B2 chain with H18Y, A26P, M47Y, K48N, M68I, A71G, D90G
notes: as for B5
- Fold change to WT CD80 (human PD-L1 [1]): 165 fold
- Fold change to WT CD80 (human CTLA-4 [2]): 6 fold
- Fold change to WT CD80 (human CD28 [3]): 17.8 fold
- Ratio of PDL1:CD28 (human PD-L1 [4]): 15 ratio
- MFI at 33.3 nM (human PD-L1 [5]): 27300 MFI
- MFI at 33.3 nM (human CTLA-4 [6]): 8280 MFI
- MFI at 33.3 nM (human CD28 [7]): 1820 MFI

B11: variant CD80 IgV-Fc (inert) H18L/A26N/D46E/V68M/A71G/D90G (Fc fusion)
chain: B2 chain with H18L, A26N, D35E, D46E, K48N, A71G, D90G
notes: as for B5
- Fold change to WT CD80 (human PD-L1 [1]): 412 fold
- Fold change to WT CD80 (human CTLA-4 [2]): 12.3 fold
- Fold change to WT CD80 (human CD28 [3]): 71.1 fold
- Ratio of PDL1:CD28 (human PD-L1 [4]): 9.4 ratio
- MFI at 33.3 nM (human PD-L1 [5]): 68000 MFI
- MFI at 33.3 nM (human CTLA-4 [6]): 17000 MFI
- MFI at 33.3 nM (human CD28 [7]): 7250 MFI

B12: CD80 E35D/N48K/V68M/K89N IgV-Fc (Fc fusion, not shown: small tags and cut ends; a dimerising Fc or GST)
chain: B2 chain with K89N
- MFI at 33.3 nM [8]: 1530 MFI
- MFI at 33.3 nM [10]: 17400 MFI

B13: variant CD80 IgV-Fc (inert) H18C/A26P/E35D/M47L/V68M/A71G (Fc fusion)
chain: B2 chain with H18C, A26P, M47L, K48N, A71G
notes: as for B5
- Fold change to WT CD80 (human PD-L1 [1]): 406 fold
- Fold change to WT CD80 (human CTLA-4 [2]): 16.9 fold
- Fold change to WT CD80 (human CD28 [3]): 18.7 fold
- Ratio of PDL1:CD28 (human PD-L1 [4]): 35.2 ratio
- MFI at 33.3 nM (human PD-L1 [5]): 67000 MFI
- MFI at 33.3 nM (human CTLA-4 [6]): 23400 MFI
- MFI at 33.3 nM (human CD28 [7]): 1910 MFI

Further lines, results first:

- Fold change to WT CD80 (human PD-L1 [1]): 392 fold
- Fold change to WT CD80 (human CTLA-4 [2]): 14.7 fold
- Fold change to WT CD80 (human CD28 [3]): 62.2 fold
- Ratio of PDL1:CD28 (human PD-L1 [4]): 10.2 ratio
- MFI at 33.3 nM (human PD-L1 [5]): 64800 MFI
- MFI at 33.3 nM (human CTLA-4 [6]): 20300 MFI
- MFI at 33.3 nM (human CD28 [7]): 6350 MFI
B1: variant CD80 IgV-Fc (inert) H18L/E35D/M47V/V68M/A71G/D90G (Fc fusion)
chain: B2 chain with H18L, M47V, K48N, A71G, D90G
notes: as for B5

- Fold change to WT CD80 (human PD-L1 [1]): 409 fold
- Fold change to WT CD80 (human CTLA-4 [2]): 16 fold
- Fold change to WT CD80 (human CD28 [3]): 61.3 fold
- Ratio of PDL1:CD28 (human PD-L1 [4]): 10.8 ratio
- MFI at 33.3 nM (human PD-L1 [5]): 67500 MFI
- MFI at 33.3 nM (human CTLA-4 [6]): 22100 MFI
- MFI at 33.3 nM (human CD28 [7]): 6250 MFI
B3: variant CD80 IgV-Fc (inert) H18V/A26D/E35D/M47V/V68M/A71G/D90G (Fc fusion)
chain: B2 chain with H18V, A26D, M47V, K48N, A71G, D90G
notes: as for B5

- MFI at 33.3 nM [8]: 1320 MFI
- MFI at 33.3 nM [9]: 24800 MFI
- MFI at 33.3 nM [10]: 11800 MFI
B4: CD80 M47V/V68M/K89N IgV-Fc (Fc fusion, not shown: small tags and cut ends; a dimerising Fc or GST)
chain: B2 chain with D35E, M47V, K48N, K89N

- Fold change to WT CD80 (human PD-L1 [1]): 290 fold
- Fold change to WT CD80 (human CTLA-4 [2]): 11.9 fold
- Fold change to WT CD80 (human CD28 [3]): 25 fold
- Ratio of PDL1:CD28 (human PD-L1 [4]): 18.8 ratio
- MFI at 33.3 nM (human PD-L1 [5]): 47900 MFI
- MFI at 33.3 nM (human CTLA-4 [6]): 16500 MFI
- MFI at 33.3 nM (human CD28 [7]): 2550 MFI
B6: variant CD80 IgV-Fc (inert) H18Y/E35D/M47V/V68L/A71G/D90G (Fc fusion)
chain: B2 chain with H18Y, M47V, K48N, M68L, A71G, D90G
notes: as for B5

- Fold change to WT CD80 (human PD-L1 [1]): 167 fold
- Fold change to WT CD80 (human CTLA-4 [2]): 12.4 fold
- Fold change to WT CD80 (human CD28 [3]): 59.1 fold
- Ratio of PDL1:CD28 (human PD-L1 [4]): 4.6 ratio
- MFI at 33.3 nM (human PD-L1 [5]): 27500 MFI
- MFI at 33.3 nM (human CTLA-4 [6]): 17200 MFI
- MFI at 33.3 nM (human CD28 [7]): 6030 MFI
B8: variant CD80 IgV-Fc (inert) H18F/A26D/E35D/D46E/M47T/V68M/A71G/D90G (Fc fusion)
chain: B2 chain with H18F, A26D, D46E, M47T, K48N, A71G, D90G
notes: as for B5

- MFI at 33.3 nM [8]: 170 MFI
- MFI at 33.3 nM [9]: 4370 MFI
B9: CD80 N48K/K89N IgV-Fc (Fc fusion, not shown: small tags and cut ends; a dimerising Fc or GST)
chain: B2 chain with D35E, M68V, K89N

- Fold change to WT CD80 (human PD-L1 [1]): 136 fold
- Fold change to WT CD80 (human CTLA-4 [2]): 11 fold
- Fold change to WT CD80 (human CD28 [3]): 31.1 fold
- Ratio of PDL1:CD28 (human PD-L1 [4]): 7.1 ratio
- MFI at 33.3 nM (human PD-L1 [5]): 22400 MFI
- MFI at 33.3 nM (human CTLA-4 [6]): 15200 MFI
- MFI at 33.3 nM (human CD28 [7]): 3170 MFI
B10: variant CD80 IgV-Fc (inert) H18F/A26N/E35D/M47V/V68M/A71G/D90K (Fc fusion)
chain: B2 chain with H18F, A26N, M47V, K48N, A71G, D90K
notes: as for B5
